The record followed here is publication PMC6469932 (Biochemistry, 2018).

Substrate in series [1]: O=C(O)C(=O)Cc1ccccc1
As to the kind of experiment: purified protein. It is filed as biochemical, Sinorhizobium meliloti. The note with it: 0.4 mM NADPH, 150 mM NaCl, 150 mM Tris-HCl pH 7.5, 25 °C.

Substrate in series [2]: O=C(O)C(=O)[C@@H](O)[C@H](O)[C@H](O)CO
In words: purified protein. It is filed as biochemical, Sinorhizobium meliloti. The note with it: 0.4 mM NADPH, 150 mM NaCl, 150 mM Tris-HCl pH 7.5, 25 °C.

Series [3] concerns the molecule itself. In words: crystal structure.
Substrate in series [4]: CC(=O)C(=O)O
In words: purified protein. It is filed as biochemical, Sinorhizobium meliloti. The note with it: 0.4 mM NADPH, 150 mM NaCl, 150 mM Tris-HCl pH 7.5, 25 °C.

Substrate in series [5]: O=C(O)C(=O)CO
In words: purified protein. It counts as biochemical, Sinorhizobium meliloti. The note with it: 0.4 mM NADPH, 150 mM NaCl, 150 mM Tris-HCl pH 7.5, 25 °C.

B1: SmGhrB, glyoxylate/hydroxypyruvate reductase of subfamily GHRB from Sinorhizobium meliloti 1021 (enzyme, UniProt Q92LZ4 1-322, looked up)
chain: MSRPRILVPGKINPRVLERLPEMFETVRIERADAALVTADMRDVSGIAVSGKLPVPLMDAFPSLEIVANFGVGYDGVDVSRAAARGIVVTNTPDVLTEEVADTAIGLLLNTLRLLPQAEQWLRQGRWVREGAFPLSPLSLRGRTVGLFGLGRIGLAIARRLEAFGVSIAYHTRTPREGLGFTYHPTLVGMAEAVDTLIVIVPGTASTLKAVNADVLSALGPKGVLINVGRGSTVDEAALVTALQNGTIAGAGLDVFENEPNVPEALLSFPNVSLLPHVASASVVTRNAMSDLVVDNLKAWFSTGEALTPVAETPFRRRAIQN
With B1, in series [1], the K0.5 turned out to be 5.59 ± 0.92 mM and the kcat/Km worked out at 372 ± 38 M⁻¹ s⁻¹. Moreover, in series [2], the K0.5 was found to be 11.0 ± 2.0 mM and the kcat/Km worked out at 935 ± 84 M⁻¹ s⁻¹. The “stoichiometry N” value in series [3] is 2.

B2: SmGhrA, glyoxylate/hydroxypyruvate reductase of subfamily GHRA from Sinorhizobium meliloti 1021 (enzyme, UniProt Q92T34 1-319, looked up)
chain: MPAKSPVIVDLKFIPEEVEAALAGAFPGREVIDLADPAHQERDLSGIDYAVVWKSAPDLFSRAPDLKVVFSGGAGVDHVLTLPGLPDVPLVRFVDRTLTTRMSEWVMMQCLLHLRQHRAYEALAKKHEWRDLSQPEAADVTVGIMGMGVLGQDAARKLAAMGFKVIGWSRSKRVIEGVETYDAAGLDAFLGRTDFLVGLLPLTPDTRGIFNAALFAKLSRNGPFGAPVFINAGRGGSQVEADILECLDSGVLGGASLDVFEREPLSPESRFWDMPNVYVTPHVAASSDVRALFVHVEHQIARFESGLPLEHVVDKVAGY
Consider B2, for which the K0.5 worked out at 9.69 ± 0.80 mM in series [4], 9.35 ± 0.86 mM in series [5] and 6.58 ± 0.73 mM in series [1]. The kcat/Km is 57.3 ± 3.4 M⁻¹ s⁻¹ in series [4], 1200 ± 61 M⁻¹ s⁻¹ in series [5] and 267 ± 18 M⁻¹ s⁻¹ in series [1]. In series [3], the “stoichiometry N” value is 2.
